Reference: patent publication US20230220062A1 (Eli Lilly, published 2023)

B1: rabbit derived IL-19 Ab 1 (R_1) (antibody, V domains shown)
VH: QQLEESGGGLVQPEGSLTLTCTASGFSFSSSYWICWVRQAPGKGLEWLACIDTGVSGDTYYANWAEGRFTISKTSSTTVTLQMTSLTAADTATYFCARDIFGSAIDNSLWGPGTLVTVSS
VL: AIDMTQTPASVSEPVGGTVTIKCQASQSISSYLAWYQQKPGQPPKLLIYSASTLASGVPSRFRGSGSGREFTLTISDLECADAATYYCQCHYHGSSYWDNSFGGGTEVVVK
B2: rabbit derived IL-19 antibody R_4 (antibody, V domains shown)
VH: CQSVEESGGRLVTPGTPLTLTCTVSGIDLSIYAMGWVRQAPGKGLEYIGIIDTTGTAYYARWAKGRFTISKTSATVALKITSPTTEDTATYFCARDSGSLYYGSYALWGPGTLVTVSS
VL: DVVMTQTPSSVSEPVGGTVTIKCQASQSIYSYLSWYQQKPGQPPKLLIYEASKLASGVPSRFKGSGSGTQFTLTISGVECADAATYYCQQGYSSSNVDNTFGGGTEVVVT
B3: rabbit derived IL-19 Ab 39 (R_39) (antibody, V domains shown)
VH: QEQLKESGGGLVQPGGSLKLSCKASGFDLSSYGVSWVRQAPGKGLEWIGYIDPVFGSTYYANWVNGRFTISSDNAQNTLYLQLNSLTAADTATYFCARGSGYVYYGYTYDLWGPGTLVTVSS
VL: DIVMTQTPASVEAAVGGTVTIKCQASQSIYRYLSWYQQKPGQRPKLLIYGASNLASGVSSRFKGSGSGTEFTLTISDLECADAATYYCQSYYYSSSSGYGNVFGGGTEVVVKG
B4: murine derived IL-19 Ab 1 (M_1) (antibody, mouse IgG1, kappa, V domains shown)
VH: EVQLQQSGPVLVKPGASVKMSCKASGYKFTDYFVGWVKQSHGKSLEWIGYVDPENGYTRCNQKFKGKATLTVDKSSSTAYMELNSLTSEDSAVYYCARYDYDWAWFTNWGQGTLVTVSA
VL: DIVMTQSPSSLAMSVGQKVTMSCKSSQSLLSSYNQKNYLAWYQQKPGQSPKLLVYFASTRPPGVPDRFIGSGSGSDFTLTISSVQAEDLADYFCQQHERLPITFGAGTKLELKR
B5: murine derived IL-19 Ab 2 (M_2) (antibody, mouse IgG1, kappa, V domains shown)
VH: LVQLQQSDAELVKPGASLKISCKVSGYTFTDHALHWMKQRPEQGLEWIGYIYPRDGSTKYNEKFKGKATLTADRSSSTAYMELNSLTSEDSAVYFCARGWDFAMDYWGQGTSVTVSS
VL: DIVLTQSPESLAVSLGQRATISCRASESVDNYGISFIHWYQQKPGQPPKLLIYRASNLKSGIPARFSGRGSRTDFTLTINPVETDDVATYYCQQINKDPLTFGAGTKLELKR
B6: murine derived IL-19 Ab 5 (M_5) (antibody, mouse IgG1, kappa, V domains shown)
VH: EVQLQQSGPVLVKPGASVKMSCKASGYPFNDYFLGWVKQSHGKSLEWIGSINPDNDYTMSNQKFKGKATLTVDKSSSTAYMELNSLTSEDSAVYYCARYDYDWAWFAHWGQGTLVTVSA
VL: DIVMTQSPSSLAMSVGQKVTMSCKSSQSLLSSYNQKNYLAWYQRKPGQSPKLLVYFASQRATGVPDRFIGSGSGSDFTLTISSVQAEDLADYFCQQHTRLPITFGAGTKLELKR
B7: murine derived IL-19 Ab 3 (M_3) (antibody, mouse IgG1, kappa, V domains shown)
VH: QIQLVQSGPELKKPGETVKISCKASGYTFTTYGMSWVKQAPGKGLKWMVWINTYSGVPTYVDDFKGRFAFSLETSASTAYLQINNLKNEDTATYFCARRDEGFAYWGQGTLVTVSA
VL: DIKMTQSPSSMYASLGERVTITCKASQDINSYLSWFQQKPGKSPKTLIYRANRLVDGVPSRFSGSGSGQDYSLTISSLEYEDMGIYFCLQYDDFPYTFGGGTKLEIKR
B8: rabbit derived IL-19 Ab 2 (R_2) (antibody, V domains shown)
VH: QQLEESGGGLVQPEGSLTLTCTASGFSFSSSYWICWVRQAPGKGLEWLACIDTGVSGDTYYANWAKGRFTISKTSSTTVTLQMTSLTAADTATYFCARDIFGSAIDNSLWGPGTLVTVSS
VL: DVVMTQTPASVEAAVGGTVTIKCQASESIGNALAWYQQKPGQPPKLLIYDASKLASGVPSRFKGSGSGTQFTLTISDLECADAATYYCQCHYHGSSYWDNSFGGGTEVVVK
B9: rabbit derived IL-19 antibody R_3 (antibody, V domains shown)
VH: CQSLEESGGGLVEPEGSLTLTCKASGFSFSSSYWICWVRQAPGKGLEWIACTDTFSGDTYYASWAKGRFTISKTSSTTVTLRMTSLTDADTATYFCARDIFGTAVHISLWGPGTLVTVSS
VL: DVVMTQTPSSVEAAVGGTVTIKCQASQSIGSSLAWYQQKPGQRPKLLIYGASTLASGVPSRFKGSGSGTEFTLTISDLECADAATYYCQCHYHGSSYWDNSFGGGTEVVVK

Key:
[1] = biological target: T1, recombinant human IL-19 (human, UniProt Q9UHD0 25-177); experiment: BLI (Octet Red96), antibody on AMQ biosensor, IL-19 in solution, 25 C, 1:1 fit
T1 construct: also called human IL-19 recombinant protein; interleukin-19
T1 sequence: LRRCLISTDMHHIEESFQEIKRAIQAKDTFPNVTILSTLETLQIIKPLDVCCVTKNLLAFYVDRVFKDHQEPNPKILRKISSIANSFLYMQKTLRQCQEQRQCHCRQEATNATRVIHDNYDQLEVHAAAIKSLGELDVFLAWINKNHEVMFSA
Procedure: Except as noted, all reagents and materials are from ForteBio (Freemont, Calif.). An AMQ biosensor is used to immobilize antibody of interest for analysis.
Binding data is processed using standard double-referencing and fit to a 1:1 binding model using Data Analysis v9.0 evaluation software, to determine the association rate (kₒₙ, M⁻¹ s⁻¹ units), dissociation rate (koff, s⁻¹ units), and Rₘₐₓ (nm units). The equilibrium dissociation constant (KD) was calculated from the relationship KD=koff/kₒₙ, and is in molar units.

[2] = biological target: T1, recombinant human IL-19; experiment: BLI; immobilized antibody loaded with 100 nM human IL-19, then competitor human IL-20R beta Fc-fusion added; the response is that of the receptor-Fc step
Source text: Binding between a ligand immobilized on the biosensor tip surface and an analyte in solution produces an increase in optical thickness at the biosensor tip, which results in a wavelength shift (expressed in nm).

| Binder | Kd [1] [pM] | koff [1] [s⁻¹] | kon [1] [M⁻¹ s⁻¹] | IL-20R beta Fc protein binding response (nm) [2] [nm] |
| --- | --- | --- | --- | --- |
| B1 | 311 | 1.04e-05 | 33300 |  |
| B2 | 8520 | 0.0013 | 152000 |  |
| B3 | 170000 | 0.0348 | 206000 | -0.0421 |
| B4 | 57.6 | 6.32e-05 | 1.1e+06 | -0.0075 |
| B5 | 2900 | 0.000185 | 63700 | 0.361 |
| B6 | 52.1 | 3.58e-05 | 688000 | -0.0124 |
| B7 |  |  |  | 0.354 |
| B8 | 103 | 4.42e-05 | 428000 |  |
| B9 | < 1 | < 1e-07 | 391000 |  |
